Data as given in patent US20050227306.

Columns and labels:
[1] = system: His6-tetraCys-X-MBP protease substrate 26-F [MBP: P0AEX9]
[2] = system: His6-tetraCys-X-MBP protease substrate 21-F [MBP: P0AEX9]
[3] = system: His6-tetraCys-X-MBP protease substrate 24-F [MBP: P0AEX9]
[4] = system: His6-tetraCys-X-MBP protease substrate 25-F [MBP: P0AEX9]
[5] = system: His6-tetraCys-X-MBP protease substrate 23-F [MBP: P0AEX9]
[6] = system: His6-tetraCys-X-MBP protease substrate 22-F [MBP: P0AEX9]

Substance: Trypsin
- relative rate of reaction (initial proteolysis rate by fluorescence anisotropy, normalised to the cognate substrate) [1]: n.d. (not detected)
- relative rate of reaction (initial proteolysis rate by fluorescence anisotropy, normalised to the cognate substrate) (relative rate) [2]: 0.3
- relative rate of reaction (initial proteolysis rate by fluorescence anisotropy, normalised to the cognate substrate) (relative rate) [3]: 0.4
- relative rate of reaction (initial proteolysis rate by fluorescence anisotropy, normalised to the cognate substrate) (relative rate) [4]: 0.5
- relative rate of reaction (initial proteolysis rate by fluorescence anisotropy, normalised to the cognate substrate) (relative rate) [5]: 0.1
- relative rate of reaction (initial proteolysis rate by fluorescence anisotropy, normalised to the cognate substrate) (relative rate) [6]: 1
- specific reaction rate (slope of initial proteolysis rate versus protease concentration) [6]: trypsin; 760±60

Substance: Thrombin
- relative rate of reaction (initial proteolysis rate by fluorescence anisotropy, normalised to the cognate substrate) (relative rate) [1]: 0
- relative rate of reaction (initial proteolysis rate by fluorescence anisotropy, normalised to the cognate substrate) (relative rate) [2]: 0
- relative rate of reaction (initial proteolysis rate by fluorescence anisotropy, normalised to the cognate substrate) (relative rate) [3]: 0
- relative rate of reaction (initial proteolysis rate by fluorescence anisotropy, normalised to the cognate substrate) (relative rate) [4]: 1
- specific reaction rate (per supplier's unit of enzyme) [4]: thrombin, 0.20±0.02
- specific reaction rate (slope of initial proteolysis rate versus protease concentration) [4]: thrombin; 240±20
- relative rate of reaction (initial proteolysis rate by fluorescence anisotropy, normalised to the cognate substrate) (relative rate) [5]: -0.02
- relative rate of reaction (initial proteolysis rate by fluorescence anisotropy, normalised to the cognate substrate) (relative rate) [6]: 0.4

Substance: Factor Xa
- relative rate of reaction (initial proteolysis rate by fluorescence anisotropy, normalised to the cognate substrate) (relative rate) [1]: 0
- SDS-PAGE with Coomassie staining after overnight incubation [2]: formation of a small amount of a small molecular-weight band
- relative rate of reaction (initial proteolysis rate by fluorescence anisotropy, normalised to the cognate substrate) (relative rate) [2]: 0.04
- SDS-PAGE with Coomassie staining after overnight incubation [3]: little or no intact fusion protein was detected after an overnight incubation
- relative rate of reaction (initial proteolysis rate by fluorescence anisotropy, normalised to the cognate substrate) (relative rate) [3]: 1
- specific reaction rate (per supplier's unit of enzyme) [3]: Factor Xa, 0.37±0.03
- SDS-PAGE with Coomassie staining after overnight incubation [4]: formation of a small amount of a small molecular-weight band
- relative rate of reaction (initial proteolysis rate by fluorescence anisotropy, normalised to the cognate substrate) (relative rate) [4]: 0.05
- SDS-PAGE with Coomassie staining after overnight incubation [5]: formation of a small amount of a small molecular-weight band
- relative rate of reaction (initial proteolysis rate by fluorescence anisotropy, normalised to the cognate substrate) (relative rate) [5]: 0.01
- SDS-PAGE with Coomassie staining after overnight incubation [6]: little or no intact fusion protein was detected after an overnight incubation
- relative rate of reaction (initial proteolysis rate by fluorescence anisotropy, normalised to the cognate substrate) (relative rate) [6]: 0.5

Substance: Enterokinase
- relative rate of reaction (initial proteolysis rate by fluorescence anisotropy, normalised to the cognate substrate) (relative rate) [1]: 1
- relative rate of reaction (initial proteolysis rate by fluorescence anisotropy, normalised to the cognate substrate) (relative rate) [2]: 0.5
- relative rate of reaction (initial proteolysis rate by fluorescence anisotropy, normalised to the cognate substrate) (relative rate) [3]: 0.2
- relative rate of reaction (initial proteolysis rate by fluorescence anisotropy, normalised to the cognate substrate) [4]: n.d. (not detected)
- relative rate of reaction (initial proteolysis rate by fluorescence anisotropy, normalised to the cognate substrate) (relative rate) [5]: 1
- specific reaction rate (per supplier's unit of enzyme) [5]: enterokinase, 0.130±0.007
- relative rate of reaction (initial proteolysis rate by fluorescence anisotropy, normalised to the cognate substrate) (relative rate) [6]: 1.3
